Patent publication US9574173 (ACCELERATED BIOSCIENCES, dated 2017)
Values belong to the binder of their own block, whether it stands above or below them.

Key:
[1] = target: mechanistic target of rapamycin (mTOR) (human, UniProt P42345 1-2549); assay: immunoprecipitation and Western blot, RA-treated hTS cells (FIG. 28d)
[2] = target: T1, E1A binding protein p300 (EP300) (human, UniProt Q09472 2-2414); assay: immunoprecipitation and Western blot, RA-treated hTS cells (FIG. 22c)
T1 construct: Endogenous protein of RA-treated hTS cells; also called ER300
T1 sequence (Q09472 2-2414 limits assumed): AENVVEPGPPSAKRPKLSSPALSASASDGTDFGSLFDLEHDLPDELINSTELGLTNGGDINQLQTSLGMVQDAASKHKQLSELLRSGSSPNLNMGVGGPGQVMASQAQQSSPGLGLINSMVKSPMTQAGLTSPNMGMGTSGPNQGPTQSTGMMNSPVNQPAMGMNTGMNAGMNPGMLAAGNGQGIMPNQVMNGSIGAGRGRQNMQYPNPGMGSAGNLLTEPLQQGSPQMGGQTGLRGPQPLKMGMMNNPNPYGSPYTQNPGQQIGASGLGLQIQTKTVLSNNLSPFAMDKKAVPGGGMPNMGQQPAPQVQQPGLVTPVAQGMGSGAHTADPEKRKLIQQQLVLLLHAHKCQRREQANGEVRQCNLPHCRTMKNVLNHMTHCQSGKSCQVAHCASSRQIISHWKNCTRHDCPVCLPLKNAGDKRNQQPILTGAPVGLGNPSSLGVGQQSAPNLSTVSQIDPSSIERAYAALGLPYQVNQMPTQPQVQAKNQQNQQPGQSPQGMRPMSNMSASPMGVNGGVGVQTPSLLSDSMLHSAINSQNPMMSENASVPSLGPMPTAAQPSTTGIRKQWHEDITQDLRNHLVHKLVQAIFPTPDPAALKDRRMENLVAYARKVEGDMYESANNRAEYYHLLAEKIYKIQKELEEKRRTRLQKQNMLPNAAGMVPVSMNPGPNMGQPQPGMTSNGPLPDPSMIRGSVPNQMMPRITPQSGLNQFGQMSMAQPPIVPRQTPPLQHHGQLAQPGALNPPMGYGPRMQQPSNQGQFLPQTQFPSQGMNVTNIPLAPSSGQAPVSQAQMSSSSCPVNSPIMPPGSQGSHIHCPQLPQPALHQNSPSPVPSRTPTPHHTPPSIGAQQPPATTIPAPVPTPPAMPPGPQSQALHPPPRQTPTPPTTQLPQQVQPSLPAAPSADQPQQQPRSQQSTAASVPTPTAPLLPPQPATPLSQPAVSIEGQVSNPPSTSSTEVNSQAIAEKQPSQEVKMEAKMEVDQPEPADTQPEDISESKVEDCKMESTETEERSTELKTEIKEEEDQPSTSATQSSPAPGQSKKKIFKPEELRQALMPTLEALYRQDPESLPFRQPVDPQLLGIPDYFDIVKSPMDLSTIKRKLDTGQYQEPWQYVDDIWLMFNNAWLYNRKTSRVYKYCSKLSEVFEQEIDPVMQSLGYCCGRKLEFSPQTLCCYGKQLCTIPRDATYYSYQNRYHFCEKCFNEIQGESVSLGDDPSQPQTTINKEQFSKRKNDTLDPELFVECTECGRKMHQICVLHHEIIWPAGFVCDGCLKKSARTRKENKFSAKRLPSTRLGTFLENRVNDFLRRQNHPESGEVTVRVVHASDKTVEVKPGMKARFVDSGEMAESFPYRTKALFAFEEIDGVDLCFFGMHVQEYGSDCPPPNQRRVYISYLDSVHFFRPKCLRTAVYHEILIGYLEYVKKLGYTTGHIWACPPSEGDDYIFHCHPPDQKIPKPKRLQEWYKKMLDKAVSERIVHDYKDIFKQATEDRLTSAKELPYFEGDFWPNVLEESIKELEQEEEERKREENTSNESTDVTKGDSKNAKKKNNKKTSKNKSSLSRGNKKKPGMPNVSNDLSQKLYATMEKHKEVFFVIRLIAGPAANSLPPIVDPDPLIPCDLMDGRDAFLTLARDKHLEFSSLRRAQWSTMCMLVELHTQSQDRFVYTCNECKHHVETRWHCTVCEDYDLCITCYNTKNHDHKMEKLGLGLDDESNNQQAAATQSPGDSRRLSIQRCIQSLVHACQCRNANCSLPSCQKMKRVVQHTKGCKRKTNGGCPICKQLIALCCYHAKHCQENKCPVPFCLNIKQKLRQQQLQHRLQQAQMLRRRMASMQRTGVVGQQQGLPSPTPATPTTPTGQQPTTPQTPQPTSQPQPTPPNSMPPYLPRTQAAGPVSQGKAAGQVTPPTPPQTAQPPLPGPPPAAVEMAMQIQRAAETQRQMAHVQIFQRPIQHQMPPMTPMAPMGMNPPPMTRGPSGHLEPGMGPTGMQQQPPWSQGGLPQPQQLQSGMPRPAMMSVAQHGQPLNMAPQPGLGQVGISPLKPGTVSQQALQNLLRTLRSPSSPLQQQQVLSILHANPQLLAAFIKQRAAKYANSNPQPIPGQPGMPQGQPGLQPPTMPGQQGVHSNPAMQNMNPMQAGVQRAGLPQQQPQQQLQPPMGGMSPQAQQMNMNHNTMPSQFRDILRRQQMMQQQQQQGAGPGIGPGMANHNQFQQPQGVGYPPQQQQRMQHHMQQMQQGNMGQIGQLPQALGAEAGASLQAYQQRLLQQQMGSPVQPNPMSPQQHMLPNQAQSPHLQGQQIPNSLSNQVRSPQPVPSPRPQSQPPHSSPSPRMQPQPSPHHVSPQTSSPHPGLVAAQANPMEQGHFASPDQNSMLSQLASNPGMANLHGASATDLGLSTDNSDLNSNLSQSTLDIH

- binding result [1]: binds
B1: rac-gamma serine/threonine-protein kinase (AKt3) (enzyme)
chain: SDVTIVKEGWVQKRGEYIKNWRPRYFLLKTDGSFIGYKEKPQDVDLPYPLNNFSVAKCQLMKTERPKPNTFIIRCLQWTTVIERTFHVDTPEEREEWTEAIQAVADRLQRQEEERMNCSPTSQIDNIGEEEMDASTTHHKRKTMNDFDYLKLLGKGTFGKVILVREKASGKYYAMKILKKEVIIAKDEVAHTLTESRVLKNTRHPFLTSLKYSFQTKDRLCFVMEYVNGGELFFHLSRERVFSEDRTRFYGAEIVSALDYLHSGKIVYRDLKLENLMLDKDGHIKITDFGLCKEGITDAATMKTFCGTPEYLAPEVLEDNDYGRAVDWWGLGVVMYEMMCGRLPFYNQDHEKLFELILMEDIKFPRTLSSDAKSLLSGLLIKDPNKRLGGGPDDAKEIMRHSFFSGVNWQDVYDKKLVPPFKPQVTSETDTRYFDEEFTAQTITITPPEKYDEDGMDCMDNERRPHFPQFSYSASGRE
notes: Endogenous protein of RA-treated hTS cells

- binding result [2]: binds
B2: myocyte enhancer factor 2A (MEF2A) (other, human, UniProt Q02078 1-507, looked up)
chain: MGRKKIQITRIMDERNRQVTFTKRKFGLMKKAYELSVLCDCEIALIIFNSSNKLFQYASTDMDKVLLKYTEYNEPHESRTNSDIVEALNKKEHRGCDSPDPDTSYVLTPHTEEKYKKINEEFDNMMRNHKIAPGLPPQNFSMSVTVPVTSPNALSYTNPGSSLVSPSLAASSTLTDSSMLSPPQTTLHRNVSPGAPQRPPSTGNAGGMLSTTDLTVPNGAGSSPVGNGFVNSRASPNLIGATGANSLGKVMPTKSPPPPGGGNLGMNSRKPDLRVVIPPSSKGMMPPLSEEEELELNTQRISSSQATQPLATPVVSVTTPSLPPQGLVYSAMPTAYNTDYSLTSADLSALQGFNSPGMLSLGQVSAWQQHHLGQAALSSLVAGGQLSQGSNLSINTNQNISIKSEPISPPRDRMTPSGFQQQQQQQQQQQPPPPPQPQPQPPQPQPRQEMGRSPVDSLSSSSSSYDGSDREDPRGDFHSPIVLGRPPNTEDRESPSVKRMRMDAWVT
notes: as for B1
